# Target: C5, P01031
# Assay: Kd (SPR)
row,Kd [nM],Binder
1,324,unnamed (protein) chain 1: QVQLVQSGAEVKKPGASVKVSCKASGYIFSNYWIQWVRQAPGQGLEWMGEILPGSGSTEYTENFKDRVTMTRDTSTSTVYMELSSLRSEDTAVYYCARLYYGDTPIIYFDYWGQGTLVTVSS chain 2: DIQMTQSPSSLSASVGDRVTITCGASENIYGALNWYQQKPGKAPKLLIYGATNLADGVPSRFSGSGSGTDFTLTISSLQPEDFATYYCQNVLNTPLTFGQGTKVEIK
2,507,unnamed (protein) chain 1: QVQLVQSGAEVKKPGASVKVSCKASGYTFTSYWIQWVRQAPGQGLEWMGEIKPGSGYTEYTENFKDRVTMTRDTSTSTVYMELSSLRSEDTAVYYCARYRYGDTPIIYFDYWGQGTLVTVSS chain 2: DIQMTQSPSSLSASVGDRVTITCGASENIYGALNWYQQKPGKAPKLLIYGATNLADGVPSRFSGSGSGTDFTLTISSLQPEDFATYYCQNVLNTPLTFGQGTKVEIK
3,293,unnamed (protein) chain 1: QVQLVQSGAEVKKPGASVKVSCKASGYTFTSYWIQWVRQAPGQGLEWMGEIKPGSGYTEYTENFKDRVTMTRDTSTSTVYMELSSLRSEDTAVYYCARHEYGDTPIIYFDYWGQGTLVTVSS chain 2: DIQMTQSPSSLSASVGDRVTITCGASENIYGALNWYQQKPGKAPKLLIYGATNLADGVPSRFSGSGSGTDFTLTISSLQPEDFATYYCQNVLNTPLTFGQGTKVEIK
4,2300,unnamed (protein) chain 1: QVQLVQSGAEVKKPGASVKVSCKASGYTFTSYWIQWVRQAPGQGLEWMGEIHPGSGYTEYTENFKDRVTMTRDTSTSTVYMELSSLRSEDTAVYYCARYRYGDTPIIYFDYWGQGTLVTVSS chain 2: DIQMTQSPSSLSASVGDRVTITCGASENIYGALNWYQQKPGKAPKLLIYGATNLADGVPSRFSGSGSGTDFTLTISSLQPEDFATYYCQNVLNTPLTFGQGTKVEIK
5,622,unnamed (protein) chain 1: QVQLVQSGAEVKKPGASVKVSCKASGYTFTSYWIQWVRQAPGQGLEWMGEIQPGSGYTEYTENFKDRVTMTRDTSTSTVYMELSSLRSEDTAVYYCARYRYGDTPIIYFDYWGQGTLVTVSS chain 2: DIQMTQSPSSLSASVGDRVTITCGASENIYGALNWYQQKPGKAPKLLIYGATNLADGVPSRFSGSGSGTDFTLTISSLQPEDFATYYCQNVLNTPLTFGQGTKVEIK
6,127,unnamed (protein) chain 1: QVQLVQSGAEVKKPGASVKVSCKASGYIFSNYWIQWVRQAPGQGLEWMGEILPGSGSTEYTENFKDRVTMTRDTSTSTVYMELSSLRSEDTAVYYCARYYYGDTPYIYFDYWGQGTLVTVSS chain 2: DIQMTQSPSSLSASVGDRVTITCGASENIYGALNWYQQKPGKAPKLLIYGATNLADGVPSRFSGSGSGTDFTLTISSLQPEDFATYYCQNVLNTPLTFGQGTKVEIK
7,275,unnamed (protein) chain 1: QVQLVQSGAEVKKPGASVKVSCKASGYIFSNYWIQWVRQAPGQGLEWMGEILPGSGSTEYTENFKDRVTMTRDTSTSTVYMELSSLRSEDTAVYYCARYEYGDTPIIYFDYWGQGTLVTVSS chain 2: DIQMTQSPSSLSASVGDRVTITCGASENIYGALNWYQQKPGKAPKLLIYGATNLADGVPSRFSGSGSGTDFTLTISSLQPEDFATYYCQNVLNTPLTFGQGTKVEIK
8,251,unnamed (protein) chain 1: QVQLVQSGAEVKKPGASVKVSCKASGYTFTSYWIQWVRQAPGQGLEWMGEIHPGSGETEYTENFKDRVTMTRDTSTSTVYMELSSLRSEDTAVYYCARYRYGDTPIIYFDYWGQGTLVTVSS chain 2: DIQMTQSPSSLSASVGDRVTITCGASENIYGALNWYQQKPGKAPKLLIYGATNLADGVPSRFSGSGSGTDFTLTISSLQPEDFATYYCQNVLNTPLTFGQGTKVEIK
9,2510,unnamed (protein) chain 1: QVQLVQSGAEVKKPGASVKVSCKASGYIFSNYWIQWVRQAPGQGLEWMGEILPGSGSTEYTENFKDRVTMTRDTSTSTVYMELSSLRSEDTAVYYCARLRYGDTPYIYFDYWGQGTLVTVSS chain 2: DIQMTQSPSSLSASVGDRVTITCGASENIYGALNWYQQKPGKAPKLLIYGATNLADGVPSRFSGSGSGTDFTLTISSLQPEDFATYYCQNVLNTPLTFGQGTKVEIK
10,3600,unnamed (protein) chain 1: QVQLVQSGAEVKKPGASVKVSCKASGYTFTSYWIQWVRQAPGQGLEWMGEIHPGSGYTEYTENFKDRVTMTRDTSTSTVYMELSSLRSEDTAVYYCARLRYGDTPIIYFDYWGQGTLVTVSS chain 2: DIQMTQSPSSLSASVGDRVTITCGASENIYGALNWYQQKPGKAPKLLIYGATNLADGVPSRFSGSGSGTDFTLTISSLQPEDFATYYCQNVLNTPLTFGQGTKVEIK
11,1700,unnamed (protein) chain 1: QVQLVQSGAEVKKPGASVKVSCKASGYIFSNYWIQWVRQAPGQGLEWMGEILPGSGSTEYTENFKDRVTMTRDTSTSTVYMELSSLRSEDTAVYYCARHYYGDTPDIYFDYWGQGTLVTVSS chain 2: DIQMTQSPSSLSASVGDRVTITCGASENIYGALNWYQQKPGKAPKLLIYGATNLADGVPSRFSGSGSGTDFTLTISSLQPEDFATYYCQNVLNTPLTFGQGTKVEIK
12,267,unnamed (protein) chain 1: QVQLVQSGAEVKKPGASVKVSCKASGYTFTSYWIQWVRQAPGQGLEWMGEIHPGSGYTEYTENFKDRVTMTRDTSTSTVYMELSSLRSEDTAVYYCARYYYGDTPYIYFDYWGQGTLVTVSS chain 2: DIQMTQSPSSLSASVGDRVTITCGASENIYGALNWYQQKPGKAPKLLIYGATNLADGVPSRFSGSGSGTDFTLTISSLQPEDFATYYCQNVLNTPLTFGQGTKVEIK
13,126,unnamed (protein) chain 1: QVQLVQSGAEVKKPGASVKVSCKASGYIFSNYWIQWVRQAPGQGLEWMGEILPGSGSTEYTENFKDRVTMTRDTSTSTVYMELSSLRSEDTAVYYCARYYYGDTPIIYFDYWGQGTLVTVSS chain 2: DIQMTQSPSSLSASVGDRVTITCGASENIYGALNWYQQKPGKAPKLLIYGATNLADGVPSRFSGSGSGTDFTLTISSLQPEDFATYYCQNVLNTPLTFGQGTKVEIK
14,597,unnamed (protein) chain 1: QVQLVQSGAEVKKPGASVKVSCKASGYTFTSYWIQWVRQAPGQGLEWMGEIHPGSGYTEYTENFKDRVTMTRDTSTSTVYMELSSLRSEDTAVYYCARYRYGDTPDIYFDYWGQGTLVTVSS chain 2: DIQMTQSPSSLSASVGDRVTITCGASENIYGALNWYQQKPGKAPKLLIYGATNLADGVPSRFSGSGSGTDFTLTISSLQPEDFATYYCQNVLNTPLTFGQGTKVEIK
15,399,unnamed (protein) chain 1: QVQLVQSGAEVKKPGASVKVSCKASGYTFTSYWIQWVRQAPGQGLEWMGEIHPGSGETEYTENFKDRVTMTRDTSTSTVYMELSSLRSEDTAVYYCARYRYGDTPYIYFDYWGQGTLVTVSS chain 2: DIQMTQSPSSLSASVGDRVTITCGASENIYGALNWYQQKPGKAPKLLIYGATNLADGVPSRFSGSGSGTDFTLTISSLQPEDFATYYCQNVLNTPLTFGQGTKVEIK
16,915,unnamed (protein) chain 1: QVQLVQSGAEVKKPGASVKVSCKASGYIFSNYWIQWVRQAPGQGLEWMGEILPGSGSTEYTENFKDRVTMTRDTSTSTVYMELSSLRSEDTAVYYCARYEYGDTPYIYFDYWGQGTLVTVSS chain 2: DIQMTQSPSSLSASVGDRVTITCGASENIYGALNWYQQKPGKAPKLLIYGATNLADGVPSRFSGSGSGTDFTLTISSLQPEDFATYYCQNVLNTPLTFGQGTKVEIK
17,1190,unnamed (protein) chain 1: QVQLVQSGAEVKKPGASVKVSCKASGYTFTSYWIQWVRQAPGQGLEWMGEIHPGSGYTEYTENFKDRVTMTRDTSTSTVYMELSSLRSEDTAVYYCARYRYGDTPFIYFDYWGQGTLVTVSS chain 2: DIQMTQSPSSLSASVGDRVTITCGASENIYGALNWYQQKPGKAPKLLIYGATNLADGVPSRFSGSGSGTDFTLTISSLQPEDFATYYCQNVLNTPLTFGQGTKVEIK

# Target: FXI
# Assay: Kd (SPR)
row,Kd [nM],Binder
1,46,unnamed (protein) chain 1: EVQLLESGGGLVQPGGSLRLSCAASGFTFSQYGMDWVRQAPGKGLEWVSGIGPSGGSTVYADSVKGRFTISRDNSKNTLYLQMNSLRAEDTAVYYCTRDGPWYYYGFDVWGQGTTVTVSS chain 2: DIQMTQSPSSLSASVGDRVTITCQASQDISNYLNWYQQKPGKAPKLLIYDASNLETGVPSRFSGSGSGTDFTFTISSLQPEDIATYYCQQADSFPVTFGGGTKVEIK
2,1370,unnamed (protein) chain 1: EVQLLESGGGLVQPGGSLRLSCAASGFTFSQYGMDWVRQAPGKGLEWVSGIGPSGGSTVYADSVKGRFTISRDNSKNTLYLQMNSLRAEDTAVYYCTRGGPSYYYAFDVWGQGTTVTVSS chain 2: DIQMTQSPSSLSASVGDRVTITCQASQDISNYLNWYQQKPGKAPKLLIYDASNLETGVPSRFSGSGSGTDFTFTISSLQPEDIATYYCQQADSFPVTFGGGTKVEIK

# Source: the FLAb antibody collection (doi:10.1101/2023.12.08.570889)
